The source of these data is the DeepSol protein solubility set.

This series can be described thus: soluble on expression in E. coli; label from the status in PepcDB or PDB records.
With “MRDFGEILAENRKKKGYSQSDLVNLLSQEGIQVTTKALSKWENNAREPALHVFLTLCQLLDIEDIYESFFGENPYNIMSGLNEEGRNKLIEFADILKASKKFSPLSAKIIPFHHPVEITWEPVSAGTGNYLEDSVKETYDVGHLAPEQTDFGVRISGDSMEPLYHTDDVAWIQKKDSLANGEIGIFYLNGNTYIKELHDEPDGVYLISLNQKYRPIQVLESDSFKIFGKVIGKCKGAEIPGFHLEHHHHHH”, the “soluble on expression in E. coli” value is “soluble”.

“MSLDVRIVDIDSEKPPEAKRCFLLSDVHGRADDIDTKYFNYDFDFLFFAGDMSNKSKYHEIKSFKKWINKMKAKYKIVVAGNHDLVFDREEFNDIIIGNHTAQEIRDLILKDKNIIYLEHEEITIEGIKIFGTPLSNIRIHQAFKEPYEDENDPHEEYLFFSIPDSTNIVLSHGVMKGYLDKEPNSRCKGSYGLRHAIDRVKPDLLICGHMHGCQGHTTHNNTTVILPSFCKRDKFGEETNNPYIIDIIPKLSLRMSIWKKSEKIPKMLKMNFPNVFFYLIFLILKKIWREELFVFEFYHDGEGHHHHHH”: the “soluble on expression in E. coli” value is “soluble”.

Turning to “MSLGKQLAALPADEVVEQLELAVERFLIQRKIPDQTELGFILNHLHYQTKKGGAVGVQELNIDKNIHQIAVIGDLHGDAESTKYIFQKVLLNKTFMESGMAVFLGDYVDRGQHGINVLTSILAAKVVYGDRVITIRGNHESENLNRRYGFLDEVSRAYGHAFYHKTIAPFFKLLPVAYVASVTSHTTLANRILFVHGGLPRNATLDTLILRSKVDIPSSNDITDQRYTHSLENCLPEDAVQDILWSDPSQTVHGKDTLNDYTKNPRGAGILYSSEFYRKFATENRVLAMFRGHQVVKNGFRRDFFNHYTVFSSSDYVGMKNKGAYAVLDVRCMRTTITSEVDVIGLQNYKEVNLAHCIHAYPVVQKPENEGHHHHHH”, the “soluble on expression in E. coli” value was “soluble”.

With “MGSDKIHHHHHHMHQYTNIKKAIQLSNSFWDVTTAAGMANIATRNLGNGRHEAVASGRQFTNMSSYSYLGLDSHPAILRAAADAVMNTGSLNTSISRIRVQFDILQQAEEALASLVDAETLTVPSCAAAAAATLPLLASGALTGDVAPLMVFDKNAHFCLNMMKPICADETEIQTIRHNDLNALEDLCKTHQRVAYVADGVYSTGGMAPVKELLALQDKYGLFLFFDEAHGLSTLGHLGRGLVLEEMGAINDRTLIVTSLNKGFGASGGAIFLGPRGDAERRKLATRFGGPVTWSQRINTAGLGAIIESVAVHKSAELPALQQKLQDNIRLFDQHVASENSGDRLPIRFVSIGSEERTILYAKSLLEDGYYTSPIFFPVIAKGRAGLRIMIRANMTTEEIERFGACLKQLRASHE”, the “soluble on expression in E. coli” value is listed as “not soluble”.

Turning to “MSLTVRFTESVSKQDLDALFEWAKASYGAESCWKTLYLNGLPLGNLSPEWVERVKKDWEAGCSESSDGIFLNADGWPDMGGRLQHLALGWHCAGLLDGWRNECFDLTDGGGNPLFTLERAAFRPFGLLSRAVHLNGLTESDGRWHFWIGRRSPHKAVDPNKLDNTAAGGVSGGEMPSEAVCRESSEEAGLDKTLLPLIRPVSQLHSLRSVSRGVHNEILYVFDAVLPETFLPENQDGEVAGFEKMDIGGLLDAMLSGNMMHDAQLVTLDAFCRYGLIDAAHPLSEWLDGIREGHHHHHH”, the “soluble on expression in E. coli” value is “not soluble”.

As for “MGSDKIHHHHHHMGVQETKIYPINTGWLEADLGTYIFWKGPAGQKIWNPVYCHYVDTGTHKILIDTGLCDEERATKYHHKCDKRGCLQVHEHLEQKLGVHPDEIDAVVFTHLHWDHVQNMKEFKNARYIAPKAEIEMAFNPLPLYYRTYESGYLGIEPAYTGCVFEAVEDECEVLPGITMFHTPGHSVGHMAVTVATSAGDIVVAGDAIFQERNMEPNEAEGWRYWVPARFVNSYEGWKSVEELDKRADYILACHDKVANARSNVFPYEGMPIRKRRQHIPGFKFYFGDMPAGATDKAAPALTADEAKEYLANLVPPTPD”, the “soluble on expression in E. coli” value is recorded as “not soluble”.

For the sequence “MRREKTMDTLIRSIMIKSKRKMDAKVAQFGLTTQQARVLGFLNDNAANEIIQKDLQRIFQTRGASITSLIQGLEKKQLISRKPSLRDGREKVVTLTKEGKDIVDEFNASFPREDDKAKKILSADEYKTFIELLSKIDDQTDLEHHHHHH”, the “soluble on expression in E. coli” value is given as “soluble”.

Take “MGSDKIHHHHHHMPKRIVKLEAGYNCRDLGGYVSQDGRTVKWGRLYRSGSLSHLTKADQAELARRKIVVDCDLRSRHEQDNFPDKLWPGSKLVDAHFYSESGDEEEEAEAAWEKYSSKLPKLSYLAMVYQQNLVVPRTGLVMREIFKEMLDLEDDEALLYHCSMGKDRTGMVSVIVLMALGLEDREILRDYLLSREYSRDWDEADENDRLGKQIAKMNQTQVSQTAFYGITETIRQMWGGFDRYFASLGFDQGDLDRLRDKFLE”: the “soluble on expression in E. coli” value was “not soluble”.

For “MAEICLITGTPGSGKTLKMVSMMANDEMFKPDENGIRRKVFTNIKGLKIPHTYIETDAKKLPKSTDEQLSAHDMYEWIKKPENIGSIVIVDEAQDVWPARSAGSKIPENVQWLNTHRHQGIDIFVLTQGPKLLDQNLRTLVRKHYHIASNKMGMRTLLEWKICADDPVKMASSAFSSIYTLDKKVYDLYESAEVHT”, the “soluble on expression in E. coli” value is on record as “soluble”.

As to “MAMLAYQVSKSIEINKSQSEIIDYLKDFKNWPEWSPWIILEPSCELTYSDNQGHVGAGYQWNGQRIGTGAVVLESTQEHRLDMELHFFRPIKSHGKVTLIVTPSQDGCTVEWQMQSRVPWYLFFLKTMFKSMVEMDYDRGLKMLKSQLETGQILSQLSEIGTRHQDLIHYVGLQGSGTIPELGPIMKKQTQRLYELMQKESLPVSGELFCYYLSMDMKLGHFEFVTCLPVSEMVEVPNGFVFGTIPACETFVIEHKGDYQFLGNAWSLGMNLTRQNGIKVKSKPLGIERYLNNPNETPKAGLRTEVILFKKLEHHHHHH”, the “soluble on expression in E. coli” value was “soluble”.

For “MVKETKLYDLLGVSPSANEQELKKGYRKAALKYHPDKPTGDTEKFKEISEAFEILNDPQKREIYDQYGLEAARSGGPSFGPGGPGGAGG”, the “soluble on expression in E. coli” value was “soluble”.

On to “MNYTETVAYIHSFPRLAKTGDHRRILTLLHALGNPQQQGRYIHVTGTNGKSTAANAIAHVLEASGLTVGLYTSPFIMRFNERIMIDHEPIPDAALVNAVAFVRAALERLQQQQADFNVTEFEFITALGYWYFRQRQVDVAVIEVGIGGDTDSTNVITPVVSVLTSVALDHQKLLGHTITAIAKHKAGIIKRGIPVVTGNLVPDAAAVVAAKVATTGSQWLRFDRDFSVPKAKLHGWGQRFTYEDQDGRISDLEVPLVGDYQQRNMAIAIQTAKVYAKQTEWPLTPQNIRQGLAASHWPARLEKISDTPLIVIDGAHNPDGINGLITALKQLFSQPITVIAGILADKDYAAMADRLTAAFSTVYLVPVPGTPRALPEAGYEALHEGRLKDSWQEALAASLNDVPDQPIVITGSLYLASAVRQTLLGGKS”, for which the “soluble on expression in E. coli” value is “soluble”.

Take “MSSLMCHGGGLPEVRVARPSGRAERIAALGELCRAGSIVHIGEAARQIGASEITIRRDLSVGAGGLVCLGGYVMRASEGAEGYSLTAAEASEAGAKEALAVRAAALIEPGDTVFLDCGTTTPYLAARVPQNARVTVVTQALNIAETVARLTGVNLILLAGIYHPETASFSSEEAVAMLGRINITKGFFSAAGVHETEGVTCFHFHEVPVKRAALARSRQPYLVCDGSKWGRLRPATYARLEEFEGWIGAPDRAALEHHHHHH”: the “soluble on expression in E. coli” value is reported as “not soluble”.

“MPLGLFSSGKAQVLCDEKIPGGKKKEPKQLSENKCKGVTLKLDHTRVTIEKQIAEGGFAIVYVASDRKNNKFALKRQFTKDNEKQLEACCREHSFLKQCIGHKNIVEFVDSYTNCLGNGIWECMLLTEYHQKNVLQLMNERISQNQYLTNDEILSIFTDLCEAVSFIHNRPQPIIHRDLKVENVLISSHKPPHYVLCDFGSATTQILSVEKYGVEYVKSEVERNTTMCYRSPEMIDFYSGLEIGLKSDIWALGVLLYRLCFFCVPFEESPLAIQSVNYQFPSVPNIPDEIKVLIYMLLDIDVNRRPSIYQTSVLAFEANHRKPLSEEIQNKKCTDAVPSLKSCIQLMRDGSNPRNKRDSSPRNPEAPPIQSSSKMASLSQQVPSISNISMPSGSGTVETSVAPRLRPKATTVVPNVPSISPVPPVGLPHLRLPSKGSTDETDGSQVRKVPIDFHHRQSFSGEEQLKPAAEADSAGPLSCPLIKPTDLGFTDLDKPALPRDRAQTDGKRRLPHESDIIFQQQHRRNVSDTSQISRSAFKPYSSQQTTSKTSSQVVRSVEDMSQRQNGGSGEWNPFLVAPFSNNSISRKDGQESAFMMDDSHFGMVFDEIRRKEIPAELDSETSSIDSRDPFGAAPFDQLTVSTSSSAQPVSLPPGSVHLHTSIAPSPLLRHVLTKAPPPVPRRTTSRGFQV”: the “soluble on expression in E. coli” value is reported as “not soluble”.
